Where “and” joins values, the source holds several entries; their conditions need not be identical. Equal entries are not always repeated. Square brackets hold non-standard residues; d marks the D form. Ends that are not written are not given here.
B1: D-19437_(L-Pep-1) (designed binder)
chain: G[dS][dL][dP][dV][dE][dK][dI][dI][dR][dE][dA][dK][dK][dI][dL][dD][dE][dL][dL][dK][dR]G[dL][dI][dD][dP][dE][dL][dA][dR][dI][dA][dR][dE][dV][dL][dE][dR][dA][dR][dK][dL]G[dN][dE][dE][dA][dA][dR][dF][dV][dL][dE][dL][dI][dE][dR][dL][dR][dR][dE][dL][dS]G[dS]G
notes: source: chemically synthesized (Fmoc SPPS), folded by dialysis, purified by SEC
B10: L-Pep-1 (peptide)
peptide: DEHELLETAARWFYEIAKRA
modifications: also: biotinylated (site not given here)
notes: artificial amphipathic alpha-helical peptide

How the values were obtained:
[1] = molecular target: the molecule itself; assay: SEC; D-19437 alone on Superdex 75 Increase 10/300, compared with the mixture with L-Pep-1; fractions on SDS-PAGE, Coomassie blue
L-Pep-1 = molecular target: B10; assay: BLI; Octet RED96e; biotinylated target immobilised on streptavidin biosensors, binder in solution; PBS pH 7.4 with 0.02% TWEEN; 25 °C; global fit; details: both partners purified
D-TrkA [2] = molecular target: T1, D-TrkA (human, all residues D-amino acids (glycine achiral); biotin on the N-terminus; C-terminal amide); assay: as above; details: both partners purified
T1 construct: also called mirror image of the D5 domain of human TrkA
T1 chain: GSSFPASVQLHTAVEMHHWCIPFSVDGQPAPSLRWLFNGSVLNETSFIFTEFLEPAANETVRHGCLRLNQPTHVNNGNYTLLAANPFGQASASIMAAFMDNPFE

L-TrkA [3] = molecular target: T2, L-TrkA (human, biotinylated for BLI (site not stated)); assay: as above; details: both partners purified
T2 construct: also called D5 domain of human tropomyosin receptor kinase A
T2 chain: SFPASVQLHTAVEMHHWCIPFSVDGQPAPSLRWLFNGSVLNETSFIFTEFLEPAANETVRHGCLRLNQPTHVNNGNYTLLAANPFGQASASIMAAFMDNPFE

D-TrkA [4] = molecular target: T1, D-TrkA; assay: as above; details: both partners purified
L-TrkA [5] = molecular target: T2, L-TrkA; assay: MST; Nanotemper Monolith NT.115; 50 nM L-TrkA, D-57445-evo in 16 two-fold dilutions from 122 pM to 40 uM; PBS with 0.05% Tween20, pH 7.4; MST power 40%; details: both partners purified
D-IL-6 = molecular target: T3, D-IL-6 (human, all residues D-amino acids (glycine achiral); biotin on the N-terminus; C-terminal amide); assay: BLI; Octet RED96e; biotinylated target immobilised on streptavidin biosensors, binder in solution; PBS pH 7.4 with 0.02% TWEEN; 25 °C; global fit; details: both partners purified
T3 construct: additional methionine at the N-terminus (Met1 of the chain of 186 residues); human interleukin-6, residues 28-212, made of D-amino acids; also called mirror image of human interleukin-6

L-IL-6 = molecular target: T4, L-IL-6 (human, biotinylated for BLI (site not stated)); assay: as above; details: both partners purified
T4 construct: additional methionine at the N-terminus; human interleukin-6, residues 28-212; also called human interleukin-6

D-19437_(L-Pep-1) = molecular target: B1; assay: ITC; MicroCal PEAQ-ITC, 19 injections; peptide titrated over the binder (L-19437 15 uM, D-Pep-1 150 uM); PBS pH 7.4; One Set of Sites mode; details: both partners purified
Chain of D-19437_(L-Pep-1) (chain, as listed by the source): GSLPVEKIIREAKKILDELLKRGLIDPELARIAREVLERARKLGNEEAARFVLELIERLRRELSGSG

T4 sequence (chain, as listed by the source): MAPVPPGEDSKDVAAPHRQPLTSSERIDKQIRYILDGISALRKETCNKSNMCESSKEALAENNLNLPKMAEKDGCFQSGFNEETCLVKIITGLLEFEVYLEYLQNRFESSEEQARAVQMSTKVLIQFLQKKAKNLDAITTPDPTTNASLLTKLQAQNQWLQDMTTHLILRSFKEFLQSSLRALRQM

B1
stoichiometry N [1]: 2 | Kd (L-Pep-1): 59.6 nM and 37.6 nM | koff (L-Pep-1): 0.0162 s⁻¹ and 0.0122 s⁻¹ | kon (L-Pep-1): 272000 M⁻¹ s⁻¹ and 324000 M⁻¹ s⁻¹

B2: L-57445_(D-TrkA) (designed binder)
chain: STEELVEELLELARKDPQEARKLVEEIVKELGLSPERRFELQLAIVLAQRDPELARRILERALNH
notes: source: E. coli Lemo21(DE3), purified (Ni Sepharose, SEC)
Kd (D-TrkA [2]): 152 nM | koff (D-TrkA [2]): 0.0508 s⁻¹ | kon (D-TrkA [2]): 334000 M⁻¹ s⁻¹

B3: D-57445_(L-TrkA) (designed binder)
chain: [dS][dT][dE][dE][dL][dV][dE][dE][dL][dL][dE][dL][dA][dR][dK][dD][dP][dQ][dE][dA][dR][dK][dL][dV][dE][dE][dI][dV][dK][dE][dL]G[dL][dS][dP][dE][dR][dR][dF][dE][dL][dQ][dL][dA][dI][dV][dL][dA][dQ][dR][dD][dP][dE][dL][dA][dR][dR][dI][dL][dE][dR][dA][dL][dN][dH]
notes: as for B1
Kd (L-TrkA [3]): 151 nM | koff (L-TrkA [3]): 0.0351 s⁻¹ | kon (L-TrkA [3]): 232000 M⁻¹ s⁻¹

B4: L-57445-evo_(D-TrkA) (designed binder)
chain: STQELVEELLELVRKDLEEARKLAKEIVKELGLSPELRFFLQLAIALAQRDPEVARRILERALNL
notes: the methods name only the three parents
Kd (D-TrkA [2]): 7.85 nM and 10.9 nM | koff (D-TrkA [2]): 0.000297 s⁻¹ and 0.000322 s⁻¹ | kon (D-TrkA [2]): 37800 M⁻¹ s⁻¹ and 29400 M⁻¹ s⁻¹ | Kd (D-TrkA [4]): 7.84 ± 0.02 nM

B5: D-57445-evo_(L-TrkA) (designed binder)
chain: [dS][dT][dQ][dE][dL][dV][dE][dE][dL][dL][dE][dL][dV][dR][dK][dD][dL][dE][dE][dA][dR][dK][dL][dA][dK][dE][dI][dV][dK][dE][dL]G[dL][dS][dP][dE][dL][dR][dF][dF][dL][dQ][dL][dA][dI][dA][dL][dA][dQ][dR][dD][dP][dE][dV][dA][dR][dR][dI][dL][dE][dR][dA][dL][dN][dL]
notes: source: chemically synthesized, folded
Kd (L-TrkA [3]): 1.73 nM and 1.8 nM | koff (L-TrkA [3]): 0.000248 s⁻¹ and 0.000243 s⁻¹ | kon (L-TrkA [3]): 144000 M⁻¹ s⁻¹ and 135000 M⁻¹ s⁻¹ | Kd (L-TrkA [5]): 1.19 nM

B6: L-25367_(D-IL-6) (designed binder)
chain: GEEEVKEYLTRKFKDDPELVRLLREAIEVLLKAGEDPELVLSLIESLIHITGDPRAAVKLAKEFG
notes: as for B2
Kd (D-IL-6): 25.1 nM and 11.8 nM | koff (D-IL-6): 0.00758 s⁻¹ | kon (D-IL-6): 302000 M⁻¹ s⁻¹ and 644000 M⁻¹ s⁻¹

B7: D-25367_(L-IL-6) (designed binder)
chain: G[dE][dE][dE][dV][dK][dE][dY][dL][dT][dR][dK][dF][dK][dD][dD][dP][dE][dL][dV][dR][dL][dL][dR][dE][dA][dI][dE][dV][dL][dL][dK][dA]G[dE][dD][dP][dE][dL][dV][dL][dS][dL][dI][dE][dS][dL][dI][dH][dI][dT]G[dD][dP][dR][dA][dA][dV][dK][dL][dA][dK][dE][dF]G
notes: D-protein form of design 25367; source: chemically synthesized (Fmoc SPPS), folded by dialysis, purified by SEC
Kd (L-IL-6): 28.3 nM and 48.3 nM | koff (L-IL-6): 0.0111 s⁻¹ and 0.0102 s⁻¹ | kon (L-IL-6): 391000 M⁻¹ s⁻¹ and 211000 M⁻¹ s⁻¹

B8: D-25367-evo_(L-IL-6) (designed binder)
chain: G[dE][dE][dE][dV][dI][dE][dY][dL][dT][dR][dE][dF][dK][dD][dD][dP][dE][dL][dV][dR][dL][dL][dR][dE][dA][dI][dE]G[dL][dL][dK][dA]G[dE][dD][dP][dE][dI][dV][dE][dM][dL][dI][dE][dS][dL][dI][dH][dI][dT]G[dN][dP][dR][dV][dA][dV][dK][dL][dA][dK][dE][dY][dA]
notes: D-protein form of 25367-evo; source: chemically synthesized, folded
Kd (L-IL-6): 3.03 nM and 8.75 nM | koff (L-IL-6): 0.000328 s⁻¹ and 0.000199 s⁻¹

B9: L-25367-evo_(D-IL-6) (designed binder)
chain: GEEEVIEYLTREFKDDPELVRLLREAIEGLLKAGEDPEIVEMLIESLIHITGNPRVAVKLAKEYA
notes: 25367-evo, evolved from design 25367 by directed evolution; the methods name only the three parents
Kd (D-IL-6): 0.724 nM and 1.68 nM | koff (D-IL-6): 0.000185 s⁻¹ and 0.00046 s⁻¹ | kon (D-IL-6): 256000 M⁻¹ s⁻¹ and 275000 M⁻¹ s⁻¹

B10
Kd (D-19437_(L-Pep-1)): 12.4 ± 2.1 nM | stoichiometry N (D-19437_(L-Pep-1)): 0.932 ± 0.003 sites

From article PMC11614891, “Accurate de novo design of heterochiral protein–protein interactions” (Cell Research, 2024)
